Laboratory results as given in US20240043504A1 (published 2024).
Where “and” joins values, the source holds several entries; their conditions need not be identical. Equal entries are not always repeated.

B1: mAb10956 (antibody, V domains shown)
VH: EVQLVESGGGLVQPGGSLRLSCAASGLTVSSNYMSWVRQAPGKGLEWVSVIYSGGSTFYADSVKGRFTISRDNSKNTLYLQMNSLRAEDTAVYYCARDLIKYGMDVWGQGTTVTVSS
VL: not shown
B2: mAb10914 (antibody, V domains shown)
VH: EVQLVESGGGLVQPGGSLRLSCAASGLIVSRNYMIWVRQAPGKGLEWVSVIYSGGSTFYADSVKGRFTISRHNSKNTLYLQMNSLRAEDTAVYYCARDLGTGGMDVWGQGTTVTVSS
VL: DIQLTQSPSFLSASVGDRVTITCWASQGISSYLAWYQQKPGKAPKLLIYAASTLQSGVPSRFSGSGSGTEFTLTISSLQPEDFATYYCQQLNSYPLTFGGGTKVEIKR
B3: mAb10921 (antibody, V domains shown)
VH: EVQLVESGGGLVQPGGSLRLSCAASGITVSSNYMSWVRQAPGKGLEWVSVIYSGGSTFYADSVKGRFTISRHNSKNTLYLQMNSLRAEDTAVYYCARERNFDAFDIWGQGTMVTVSS
VL: DIQMTQSPSSVSASVGDRVTITCRASQGISSWLAWYQQKPGKAPKLLIYAASSLQSGVPSRFSGSGSGTDFTLTISSLQPEDFATYYCQQANSFPLFTFGPGTKVDIKR
B4: mAb10935 (antibody, V domains shown)
VH: EVQLVESGGGLVQPGGSLRLSCAASGFTVSSNYMSWVRQAPGKGLEWVSLIYSGGSTYYADSVKGRFTISRHNSKNTLYLQMNSLRSEDTAVYYCARVPLGDYYYGMDVWGQGTTVTVSS
VL: DIQMTQSPSSLSASVGDRVTITCQASQDINKYLNWYQQKPGKAPKLLIYDASNLETGVPSRFSGSGSGTDFTFTISSLQPEDIATYYCQQSDNLPLTFGGGTKVEIKR
B5: mAb10955 (antibody, V domains shown)
VH: EVQLVESGGGLVQPGGSLRVSCAASGFTVSRNYMSWVRQAPGKGLEWVSVIYSGGSTFYADSVKGRFTISRDNSKNTLYLQMNSLRAEDTAIYYCARYIPRFDPWGQGTLVTVSS
VL: DIQMTQSPSSLSASVGDRVTITCQASQDISNYLNWFQQKPGRAPKLLIYDASNLETGVPSRFSGSGSGTDFTFTISSLQPEDIATYYCQQYDNLPITFGQGTRLEIKR
B6: mAb10954 (antibody, V domains shown)
VH: EVQLVESGGGLVQPGGSLRLSCAASGITVSSNYMSWVRQAPGKGLEWVSLIYSGGSTYYADSVKGRFTISRDNSKNTLYLQMNSLRVEDTAVYYCARDHGMAAAGYNYWGQGTLVTVSS
VL: DIQMTQSPSSLSASVGDRVTITCQASQDINKYLNWYQQKPGKAPKLLIYDASNLETGVPSRFSGSGSGTDFTFTINSLQPEDFATYFCQQYDNLPPAFGQGTKVEIKR
B7: mAb10938 (antibody, V domains shown)
VH: EVQLVESGGGLVQPGGSLRLSCAVSGFTVSSNYMSWVRQAPGKGLEWVSLIYSGGSTFYADSVKGRFTISRHNSKNTLYLQMNSLRAEDTAVYYCAREGGYSYDYNYWGQGTLVTVSS
VL: DIQMTQSPSSLSASVGDRVTITCQASQDIRNYLNWYQQKPGKAPKLLIYDASNLETGVPSRFSGIGSGTDFTFTISSLQPEDIATYYCQQYDNLPITFGQGTRLEIKR
B8: mAb10930 (antibody, V domains shown)
VH: EVQLVESGGGLVQPGRSLRLSCAASGFTFDDYAMYWVRQAPGKGLEWVSGISWNSGSIGYADSVKGRFTISRDNAKNSLYLQMNSLRAADTALYYCAKDKDWNSRGYYYYGMDVWGQGTTVTVSS
VL: not shown
B9: mAb10936 (antibody, V domains shown)
VH: QVQLVESGGGVVQPGRSLRLSCAASGFTFRNYGMHWVRQAPGKGLEWVSVIWYDGSNRYYADSVKGRFTISRDTSKNTLYLQMNSLRAEDTAVYYCARDPPITGTTGGDAFDIWGQGTMVTVSS
VL: not shown
B10: mAb10915 (antibody, V domains shown)
VH: EVQLVESGGGLVQPGGSLRLSCAASGFTVSSNYMNWVRQAPGKGLEWVSVIYSGGSTFYADSVKGRFTISRHNSKNTLYLQMNSLRPEDTAVYYCARDLGGYFDYWGQGTLVTVSS
VL: not shown
B11: mAb10920 (antibody, V domains shown)
VH: QVQLVESGGGVVQPGRSLRLSCAASGFTFSYYGMHWVRQAPGKGLEWVAVIWYDGSNKFYADSVKGRFTISRDNSKNTLYLQMNSLRAEDTAVYYCAAARPGYYYGMDVWGQGTTVTVSS
VL: DIQMTQSPSSLSASVGDRVTITCRASQGISNYLAWFQQKPGKAPNSLIYAASSLQRGVPSKFSGSGSGTDFTLTISSLQPEDFATYYCQQYNSYPRTFGQGTKVEIKR
B12: mAb10923 (antibody, V domains shown)
VH: QVQLVQSGAEVKKPGASVKVSCKASGYTFINYYIHWVRQAPGQGLEWMGWINPNSGGTNYAQKFQGRVTMTRDTSISTAYMELSRLRSDDTAVYYCAIITIFGVVTWFDPWGQGTLVTVSS
VL: not shown
B13: mAb10937 (antibody, V domains shown)
VH: QITLKESGPTLVKPTQTLTLTCTFSGFSLSTNVVGVGWIRQPPGKALEWLALIYWNDDKRYSPSLKSRLTITKDTSKNQVVLTMTNMDPVDTATYYCAHGPTGDYFDYWGQGTLVTVSS
VL: not shown
B14: mAb10939 (antibody, V domains shown)
VH: EVQLVESGGGLVQPGGSLRLSCAASGLTVSSNYMNWVRQVPGKGLEWVSVIYSGGSKFYVDSVKGRFTISRHNSKNTLYLQMNSLRPEDTAVYYCTRDAQYYGMDVWGQGTTVTVSS
VL: DIQMTQSPSSLSASVGDRVTITCRASQSISTYLHWYQQKPGEAPKLLIYAASSLQSGVPSRFSGSGSGTDFTLTISSLQPEDFATYYCQQSYSTPPEIFGQGTKLEIKR
B15: mAb10913 (antibody, V domains shown)
VH: EVQLVESGGGLVQPGGSLRLSCAASGFTFRNYEMNWVRQAPGKGLEWVSYITSSGSTMYYADSVKGRFTISRDNAKNSLYLQMNSLRAEDTAVYYCARDGFYYYYAMDVWGQGTTVTVSS
VL: QSVLTQPPSVSAAPGQKVTISCSGSSSNIGNNYVSWYQQLPGTAPKLLIYDNNKRPSGIPDRFSGSKSGTSATLGITGLQTGDEADYYCGTWDSSLSVGRVFGTGTKVTVLG
B16: mAb10932 (antibody, V domains shown)
VH: EVQLVESGGGLVQSGGSLRLSCAASGLTVSSNYMSWVRQAPGKGLEWVSVIYSGGSTFYSDSVKGRFTISRHNSKNTLYLQMNSLRAEDTAVYYCARARGDAFDIWGQGTMVTVSS
VL: not shown
B17: mAb10957 (antibody, V domains shown)
VH: EVQLVESGGGLVQPGGSLRLSCAASGVTVSSNYMSWVRQAPGKGLEWVSVIYSGGSTFYADSVKGRFTISRDNSKNTLFLQMNSLRIEDTAVYYCARDLGPYGMDVWGQGTTVTVSS
VL: DIQLTQSPSFLSASVGDRVTITCRASQGISSYLAWYQQKPGKAPKLLIYAASTLQSGVPSRFSGSGSGTQFILTISSLQPEDFATYYCQQLNSYPGFTFGPGTKVDIKR
B18: mAb10914 (antibody, V domains shown)
VH: EVQLVESGGGLVQPGGSLRLSCAASGLIVSRNYMIWVRQAPGKGLEWVSVIYSGGSTFYADSVKGRFTISRHNSKNTLYLQMNSLRAEDTAVYYCARDLGTGGMDVWGQGTTVTVSS
VL: DIQLTQSPSFLSASVGDRVTITCWASQGISSYLAWYQQKPGKAPKLLIYAASTLQSGVPSRFSGSGSGTEFTLTISSLQPEDFATYYCQQLNSYPLTFGGGTKVEIKR
B19: mAb11006 (antibody, V domains shown)
VH: EVQLVESGGGLVQPGGSLRLSCAASGFIVSRNYMSWVRQAPGKGLEWVSVIYSGGSTFYADSVKGRFTISRHNSKNTLYLQMNSLKAEDTAVYYCARELRGYFDYWGQGTLVTVSS
VL: DIQLTQSPSFLSASVGDRVTITCWASQGISSYLAWYQQKPGKAPKLLIYAASTLQSGVPSRFSGSGSGTEFTLTISSLQPEDFATYYCQLLNSYPYTFGQGTKLEIK
B20: mAb11008 (antibody, V domains shown)
VH: EVQLVESGGGLVQPGGSLRLSCAASGFTVSSNYMTWVRQAPGKGLEWVSVIYSGGSTFYADSVKGRFTISRHNSENTLYLQMNSLRAEDTAVYYCARDLAAAGTDYWGQGALVTVSS
VL: DIQLTQSPSFLSASVGDRVTITCWASQGISSYLAWYQQKPGKAPKLLIYAASTLQSGVPSRFSGSGSGTEFTLTISSLQPDDFATYYCQHLNSYLYTFGQGTKLEIK
B21: mAb11004 (antibody, V domains shown)
VH: QVQLVESGGGVVQPGRSLRLSCVASGFTFSIYGMDWVRQAPGKGLEWVAVISYDGSNKYYADSVKGRFTISRDNSKNTLYLQMNSLRPEDTAVYYCAKDREAAADAFDIWGQGTMVTVSS
VL: DIQMTQSPSSVSASVGDRVTITCRASQGISSWLAWYQQKPGKAPKLLIYAASSLHSGVPSRFSGSGSGTDFTLTISSLQPEDFATYYCQQANSFRLTFGGGTKVEIK
B22: mAb10913 (antibody, V domains shown)
VH: EVQLVESGGGLVQPGGSLRLSCAASGFTFRNYEMNWVRQAPGKGLEWVSYITSSGSTMYYADSVKGRFTISRDNAKNSLYLQMNSLRAEDTAVYYCARDGFYYYYAMDVWGQGTTVTVSS
VL: QSVLTQPPSVSAAPGQKVTISCSGSSSNIGNNYVSWYQQLPGTAPKLLIYDNNKRPSGIPDRFSGSKSGTSATLGITGLQTGDEADYYCGTWDSSLSVGRVFGTGTKVTVLG
B23: mAb11002 (antibody, V domains shown)
VH: EVQLVESGGGLVQPGGSLRLSCAASGFTVSSNYMSWVRQAPGKGLEWVSVIYSGGSTFYADSVKGRFTISRHNSKNTLYLQMNSLRAEDTAVYYCAREGYGMDVWGQGTTVTVSS
VL: not shown
B24: mAb11010 (antibody, V domains shown)
VH: QVQLVESGGGVVQPGRSLRLSCAASGFTFSSYGMHWVRQAPGKGLEWVAVISYDGSYKYYADSVKGRFTISRDNSKNTLYLQMNSLRAEDTAVYYCAIDGGTVTTIFDYWGQGTLVTVSS
VL: not shown
B25: mAb10998 (antibody, V domains shown)
VH: EVQLVESGGGLVHPGGSLRLSCAASGLTVSSNYMSWVRQAPGKGLEWVSVIYSGGSTYYADSVKGRFTISRHNSKNTLFLQMNSLRAEDTAVYYCARDRPITGTTLDVWGQGTTVTVSS
VL: DIQMTQSPSSLFASVGDRVTITCRASQSISSYLNWYQQKPGKAPKLLIYAASSLQSGVPSRFSGSGSGTDFTLTISSLQPEDFAFYYCQQTYSTPPITFGQGTRLEIK

These binders were tested against receptor binding domain (RBD) portion of the SARS-CoV-2 Spike protein (amino acids Arg319-Phe541) ex (SARS-CoV-2) (assay: not given).
B1 gave an IC50 of 0.185 nM.
B2 showed an IC50 of 0.98 nM.
For B3, the IC50 was 0.433 nM and 0.507 nM.
With B4 the IC50 was 0.102 nM and 0.0694 nM.
With B5 the IC50 was 0.141 nM.
B6 gave an IC50 of 0.0711 nM.
B7 was tested, and the IC50 was 0.275 nM.
For B8, the IC50 was 0.282 nM.
In the case of B9, the IC50 is reported as 0.0875 nM and 0.071 nM.
B10 gave an IC50 of 0.321 nM.
For B11, the IC50 was 0.338 nM and 0.139 nM.
B12 was tested, and the IC50 was 0.149 nM and 0.184 nM.
B13 showed an IC50 of 0.0649 nM.
With B14 the IC50 was 0.175 nM and 0.263 nM.
In the case of B15, the IC50 is reported as 0.217 nM.
B16 gave an IC50 of 0.373 nM.

Each binder was assayed against SARS-CoV-2 RBD-hFc (SARS-CoV-2) (assay: Luminex beads).
B17: binds.
B18: binds.
B19: binds.
B20: binds.
B21: binds.
B22: binds.
B23: binds.
B24: binds.
B25: binds.
